Measurements as given in patent publication US10429300B2, “Surface plasmon resonance approach to monitor protein-ligand interactions” (The Johns Hopkins University, priority 2015, dated 2019).
“Also recorded” adds a separate entry of the source. Like-named read-outs stand apart in the source and are kept apart here.

B1: CssIV: β-scorpion toxin from Centruroides suffusus suffusus (protein)
chain: KEGYLVNSYTGCKFECFKLGDNDYCLRECRQQYGKGSGGYCYAFGCWCTHLYEQAVVWPLPNKTCN
B2: AaHII: Nav channel-selective α-scorpion toxin from Androctonus australis hector; model toxin (protein)
chain: VKDGYIVDDVNCTYFCGRNAYCNEECTKLKGESGYCQWASPYGNACYCYKLPDHVRTKGPGRCH

Legend:
[1] = system: rNav1.2a/Kv2.1 VSD IV paddle chimera; test: Two-electrode voltage-clamp, rNav1.2a/Kv2.1 VSD IV paddle chimera in Xenopus oocytes; assay type: cell-based, rat
Chain of rNav1.2a/Kv2.1 VSD IV paddle chimera (P04775 1605-1636 limits assumed, stated change not applied): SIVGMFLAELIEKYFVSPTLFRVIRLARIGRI
Excerpt: The DNA sequence of rat (r)Nav1.2a (provided by A. Goldin, University of California, Irvine, Irvine, Calif.), rKv2.1 (provided by K. J. Swartz, National Institutes of Health), and the rNav1.2a/Kv2.1 VSD II or IV chimera was confirmed by automated DNA sequencing, and cRNA was synthesized using T7 polymerase (mMessage mMachine™ kit; Life Technologies) after linearizing the DNA with appropriate restriction enzymes. Channels were expressed in Xenopus oocytes (obtained from Xenopus 1) and studied after a 1-d incubation after cRNA injection (incubated at 17° C. in 96 mM NaCl, 2 mM KCl, 5 mM HEPES, 1 mM MgCl2, 1.8 mM CaCl2, and 50 μg/ml gentamycin, pH 7.6 with NaOH) using two-electrode voltage-clamp recording techniques (OC-725C; Warner Instruments) with a 150-μl recording chamber. Data were filtered at 4 kHz and digitized at 20 kHz using pClamp™ 10 software (Molecular Devices). Microelectrode resistances were 0.5-1.5 MΩ when filled with 3 M KCl. For Kv chimera channel experiments, the external recording solution contained (mM): 50 KCl, 50 NaCl, 5 HEPES, 1 MgCl2, and 0.3 CaCl2, pH 7.6 with NaOH. For rNav1.2a experiments, the external recording solution contained (mM): 100 NaCl, 5 HEPES, 1 MgCl2, and 1.8 CaCl2, pH 7.6 with NaOH. All experiments were performed at ˜22° C. Leak and background conductances, identified by blocking the channel with agitoxin-2 (provided by K. J. Swartz), have been subtracted for all of the Kv channel currents shown. […] Voltage-activation relationships were obtained by measuring tail currents for Kv channels or steady-state currents and calculating conductance for Nav channels, and a single Boltzmann function was fitted to the data according to I/Imax=[1c+cexp(−zF(Vc−cV1/2)/RT)]^−1, where I/Imax is the normalized tail-current amplitude, z is the equivalent charge, V1/2 is the half-activation voltage, F is Faraday's constant, R is the gas constant, and T is temperature in kelvin. For all channels, voltage-activation relationships were recorded in the absence and presence of toxin. The ratio of currents (I/I0) recorded in the presence (I) and absence (I0) of toxin was calculated for voltages typically ranging from −140 to 10 cmV, depending on the construct. […] The apparent equilibrium dissociation constant (apparent KD) for Kv channels was calculated according to KD=((1/(1c−cFu^1/4))c−c1)[toxin], assuming four independent toxin-binding sites per channel. Results are given as mean±SEM unless noted otherwise. Offline data analysis was performed using Clampfit 10™ (Molecular Devices), Origin 8.0™ (OriginLab), and Excel™ (Microsoft). All chemicals were obtained from Sigma-Aldrich.
Representative sodium currents were elicited by a 50-ms depolarization to a suitable membrane voltage (−20 to −15 mV) before (black) and after toxin addition (green) from a holding voltage of −90 mV. […] For each toxin, K^+ currents were elicited by a 300-ms depolarization to 0 mV from a holding voltage of −90 mV (tail voltage was −60 mV). […] For each toxin, K^+ currents (top) were elicited by a 300-ms depolarization near the foot of the voltage-activation curve (bottom) from a holding voltage of −90 mV.

[2] = target: T1, rNav1.2a VSD II paddle peptide (V843A, SEQ ID NO: 2) (Rattus norvegicus, UniProt P04775, V843A); test: SPR on immobilized rNav1.2a VSD II paddle peptide; assay type: binding; conditions: for SPR binding to VSD II paddle peptide: 100 nM toxin, 500 fmol peptide
T1 construct: purchased ProteoGenix; host or cells: chemical synthesis (Fmoc solid phase)
T1 sequence (P04775 832-856 V843A): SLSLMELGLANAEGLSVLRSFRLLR
Description: SPR experiments were performed at 25° C. on a Biacore™ T200 instrument (GE Healthcare) using 150 mM NaCl, 3 mM EDTA, 0.005% surfactant P20, and 10 mM HEPES-NaOH, pH 7.4, for the coupling protocol or 50 mM phosphate, pH 7.2, as running buffer. Neutravidin (Thermo Fisher Scientific) was immobilized on CM5 sensor chips (GE Healthcare) using an amine coupling chemistry. All chemicals were obtained from Sigma-Aldrich. […] In all SPR experiments, nonspecific binding obtained in the control flow cell was subtracted from the signal obtained in the experimental flow cell. For qualitative binding analysis, toxins (100 nM in running buffer containing 0.1% BSA) were injected at a flow rate of 20 μl/min over 2 min. […] In between injections, the surface of the sensor chip was regenerated by injecting 1 M NaCl (15 s at 30 l/min). The bulk signal caused by refractive index differences between the flow buffer and the buffer containing the analyte was systematically excluded from the data-fitting process. It is worth noting that isolating a paddle motif (ligand) can induce conformational changes that can affect toxin (analyte) efficacy. […] Sensorgrams can reveal such ligand heterogeneity by displaying biphasic dissociation curves that cannot be fitted with the frequently used Langmuir model, which assumes a 1:1 stoichiometry of analyte to ligand. To account for a possible heterogeneity of surface sites, we calculated the rate constants and affinity equilibrium dissociation constants (KD) for AaHII by a fit to a heterogeneous ligand model incorporated into the Biacore T200 Evaluation™ software (v1.0). This model assumes the presence of two sites on the ligand that can bind analyte and can be described by these equations in which A represents the analyte and B1/B2 represents the heterogeneous ligand:
(A) Shown are the CD spectra of the rNav1.2a VSD II and IV paddle peptides used in this paper. […] (B) Representative association and dissociation kinetic curves obtained using SPR after the application of varying concentrations of AaHII (15-2,000 nM) over a sensor chip to which 50 fmol of the rNav1.2a VSD IV paddle peptide was linked. Toxin was applied after obtaining a steady baseline. Colored traces represent toxin binding obtained after subtraction of the signal from the control flow cell. […] Toxin concentrations are indicated on the right in a shade of gray corresponding to the sensorgram. (C) Representative SPR traces after the application of 100 nM KTX, AaHI, AaHII, LqqV, BomIV, TsVII, and CssIV over a sensor chip to which the rNav1.2a VSD II (left) or IV (right) paddle peptide (500 fmol) was linked. Toxin was applied after obtaining a steady baseline. (D) Binding capacities of 100 nM α-scorpion toxins AaHI, AaHII, LqqV, the α-like scorpion toxin BomIV, and the β-scorpion toxins TsVII and CssIV to the VSD II and IV paddle motifs using SPR (error bars represent±SEM). Y-axis represents the maximum RUs obtained after toxin application.
Next, the VSD IV peptide was fixed on SPR sensor chips by adding a K-linked biotin group to the C terminus, resulting in a 32-amino acid peptide altogether (SEQ ID NO: 4 which is mutated SEQ ID NO: 3 of FIG. 2A).

[3] = target: rNav1.2a/Kv2.1 VSD IV paddle chimera; conditions: WT chimera; read-out: apparent KD, WT chimera (previously shown); cited from earlier work

Molecule	effect on VSD IV chimera voltage-activation relationship ([1]; 1 μM toxin)	SPR binding to VSD II paddle peptide [2]	Kd ([1]; 100 nM AaHII, n=3, mean±SEM, read-out: apparent KD)	K+ current inhibition of VSD IV chimera ([1]; 100 nM toxin)	SPR effect on VSD II paddle motif ([2]; up to 20 μM toxin)	Kd [3]
B1	does not influence	no RUs could be detected				
B2		a response was not obtained	1010 nM	influenced less; also recorded: influenced to a much lesser extent	not noticed	1900 nM
